From patent US20260250320A1, “LIPIDATED PEPTIDE INHIBITORS OF INTERLEUKIN-23 RECEPTOR” (Janssen Pharmaceutica NV, priority 2023, published 2026)
*1 amine or outer side, *2 acyl side, *3 side chain or, on linkers, in order; H or OH if unused. Bridges are numbered along the chain shown (N, C = ends). Primed or numbered codes have the meaning given here. Where no end group is shown, it is not given here. Side-chain parts run from the residue outwards. [ ]: non-standard residue; d: D form. The star is where a group is joined. code d = side-chain group of K(d): lysine given as (2R)-2-(4-((5-amino-5-carboxypentyl)amino)-4-oxobutanamido)-3-carboxy-N,N,N-trimethylpropan-1-aminium, C[N+](C)(C)C[C@@H](CC(=O)O)NC(=O)CCC(=O)*; TMAPF = 5-(4-(2-amino-2-carboxyethyl)phenoxy)-N,N,N-trimethylpentan-1-aminium, C[N+](C)(C)CCCCCOc1ccc(C[C@H](N[*:1])C(=O)[*:2])cc1; code d″ = lysine side-chain amide of a carnitine-succinyl group ((2R)-3-carboxy-N,N,N-trimethylpropan-1-aminium amide; Biotin = O=C1N[C@H]2[C@H](CS[C@H]2CCCCC(=O)*)N1; PEG2′ = PEG2 spacer unit (not further defined); Trp(7-Me) = Cc1cccc2c(C[C@H](N)C(=O)O)c[nH]c12; γGlu = O=C(O)[C@H](CCC(=O)[*:2])N[*:1]; 2Nal = N[C@@H](Cc1ccc2ccccc2c1)C(=O)O; AEF = NCCOc1ccc(C[C@H](N)C(=O)O)cc1; 3Pal = N[C@@H](Cc1cccnc1)C(=O)O; NMeK = CN[C@@H](CCCCN)C(=O)O; NMecPEG3a = not defined here; Pen = CC(C)(S)[C@H](N)C(=O)O; PEG2″ = PEG2 spacer unit; PEG4′ = not defined here; Thp = NC1(C(=O)O)CCOCC1; Sar = CNCC(=O)O

T1: interleukin-23 receptor (IL-23R) (UniProt Q5VWK5 24-629, limits assumed)
T1 sequence (looked up): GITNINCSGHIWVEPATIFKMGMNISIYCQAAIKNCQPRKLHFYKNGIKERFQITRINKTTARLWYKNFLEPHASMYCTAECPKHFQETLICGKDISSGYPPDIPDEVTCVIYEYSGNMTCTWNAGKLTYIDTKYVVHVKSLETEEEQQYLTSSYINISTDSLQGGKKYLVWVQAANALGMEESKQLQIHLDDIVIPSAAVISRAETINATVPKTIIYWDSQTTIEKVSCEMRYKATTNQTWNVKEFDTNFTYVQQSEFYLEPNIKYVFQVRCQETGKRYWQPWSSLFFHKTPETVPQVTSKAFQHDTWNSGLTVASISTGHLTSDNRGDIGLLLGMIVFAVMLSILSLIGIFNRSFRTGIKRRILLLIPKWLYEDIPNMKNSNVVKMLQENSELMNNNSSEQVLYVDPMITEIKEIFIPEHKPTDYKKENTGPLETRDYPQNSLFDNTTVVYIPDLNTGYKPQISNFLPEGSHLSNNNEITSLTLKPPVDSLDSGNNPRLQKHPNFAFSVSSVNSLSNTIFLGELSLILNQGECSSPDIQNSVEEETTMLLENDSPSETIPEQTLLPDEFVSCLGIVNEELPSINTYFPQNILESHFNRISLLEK


Experiments:
Experiment in all cases: cell-based or functional assay
[1] = biological target: interleukin-23 receptor (IL-23R) (UniProt Q5VWK5)
[2] = biological target: T1, interleukin-23 receptor (IL-23R)
[3] = biological target: T1, interleukin-23 receptor (IL-23R); remark: listed apart in the source

Row | Molecule | EC90, IL23R reporter assay [1] [ng/mL] | IC50, IL23R reporter assay [2] [µM] | PBMC pSTAT3 IC50 [3] [nM]
1 | Ac-K([PEG2′-PEG2′-γGlu-C18OH])[Pen]NT[Trp(7-Me)]K(Ac)[Pen][AEF][2Nal][Thp]K(Ac)N[3Pal][Sar]-NH2 (disulfide 2-7 (inferred)) [SEQ ID NO: 39] |  | < 0.05 | < 0.5
2 | [dR][Pen]K(code d)T[Trp(7-Me)]K(Ac)[Pen][AEF][2Nal][Thp]EN[3Pal][Sar]-NH2 (disulfide 2-7 (inferred); not fully specified (N-terminus); printed as HOC18gEPEG2PEG2CO-r-Pen(3)-K(d)-T-7MeW-K(Ac)-Pen(3)-AEF-2Nal-THP-E-N-3Pya-Sar-CONH2) [SEQ ID NO: 47] |  | < 0.05 | < 0.5
3 | Ac-[dK]([PEG2′-PEG2′-γGlu-C18OH])[Pen]NT[Trp(7-Me)]K(Ac)[Pen][AEF][2Nal][Thp]EN[3Pal][NMeK](code d)-NH2 (disulfide 2-7 (inferred)) [SEQ ID NO: 42] |  | < 0.05 | < 0.5
4 | Ac-[dR][Pen]NT[Trp(7-Me)]K(Ac)[Pen][AEF][2Nal][Thp]K([PEG4′-Biotin])N[3Pal][Sar]K([PEG2″-PEG2″-γGlu-C18OH])-NH2 (disulfide 2-7) [SEQ ID NO: 56] |  | < 0.05 | < 0.5
5 | Ac-[dR][Pen]NT[Trp(7-Me)]K(Ac)[Pen][AEF][2Nal][Thp]K(code d″)N[3Pal][Sar]K([PEG2″-PEG2″-γGlu-C18OH])-NH2 (disulfide 2-7 (inferred)) [SEQ ID NO: 51] |  | ≥ 0.5 | < 0.5
6 | {Biotin-PEG4′}-[dR][Pen]NT[Trp(7-Me)]K(Ac)[Pen][AEF][2Nal][Thp]EN[3Pal][Sar]K([PEG2″-PEG2″-γGlu-C18OH])-NH2 (disulfide 2-7) [SEQ ID NO: 57] |  | < 0.05 | < 0.5
7 | Ac-[dR][Pen]NT[Trp(7-Me)]Q[Pen][AEF][2Nal][Thp]EN[3Pal][Sar]K([PEG2′-PEG2′-γGlu-C18OH])-NH2 (disulfide 2-7 (inferred)) [SEQ ID NO: 38] |  | < 0.05 | < 0.5
8 | [dR][Pen]NT[Trp(7-Me)]K(code d)[Pen][AEF][2Nal][Thp]EN[3Pal][Sar]-NH2 (disulfide 2-7 (inferred); not fully specified (N-terminus); printed as HOC18gEPEG2PEG2CO-r-Pen(3)-N-T-7MeW-K(d)-Pen(3)-AEF-2Nal-THP-E-N-3Pya-Sar-CONH2) [SEQ ID NO: 46] |  | < 0.05 | < 0.5
9 | Ac-[dR][Pen]XT[Trp(7-Me)]K(Ac)[Pen][AEF][2Nal][Thp]K([PEG2′-PEG2′-γGlu-C18OH])N[3Pal][Sar]-NH2 (disulfide 2-7 (inferred); not fully specified (residue 3); printed as MeCO-r-Pen(3)-K(d)-T-7MeW-K(Ac)-Pen(3)-AEF-2Nal-THP-K(PEG2PEG2gEC18OH)-N-3Pya-Sar-CONH2) [SEQ ID NO: 37] |  | < 0.05 | < 0.5
10 | [dR][Pen]NT[Trp(7-Me)]K(Ac)[Pen][AEF][2Nal][Thp]EN[3Pal][NMeK](code d)-NH2 (disulfide 2-7 (inferred); not fully specified (N-terminus); printed as HOC18gEPEG2PEG2CO-r-Pen(3)-N-T-7MeW-K(Ac)-Pen(3)-AEF-2Nal-THP-E-N-3Pya-NMeK(d)-CONH2) [SEQ ID NO: 43] |  | < 0.05 | < 0.5

Other lines, results leading:

Row | EC90, IL23R reporter assay [1] [ng/mL] | IC50, IL23R reporter assay [2] [µM] | PBMC pSTAT3 IC50 [3] [nM] | Molecule
11 | 10 |  |  | interleukin-23 (IL-23) (from UniProt Q9NPF7 20-189; P29460 23-328) (ligand)
12 |  | < 0.05 | < 0.5 | XNTXXXXXXENXX (HOC18gEPEG2PEG2CO-Pen(3)-N-T-7MeW-K(Ac)-Pen(3)-AEF-2Nal-THP-E-N-3Pya-Sar-CONH2) [SEQ ID NO: 61]
13 |  | < 0.05 | < 0.5 | Ac-K([PEG2″-PEG2″-γGlu-C18OH])[Pen]NT[Trp(7-Me)]K(Ac)[Pen][TMAPF][2Nal][Thp]K(Ac)N[3Pal][Sar]-NH2 (disulfide 2-7 (inferred)) [SEQ ID NO: 62]
14 |  | < 0.05 | < 0.5 | Ac-[dR][Pen]NT[Trp(7-Me)]K(NMecPEG3a)[Pen][AEF][2Nal][Thp]EN[3Pal][Sar]K([PEG2″-PEG2″-C18OH])-NH2 (disulfide 2-7 (inferred); reading uncertain; also: printed as MeCO-r-Pen(3)-N-T-7MeW-K(NMecPEG3a)-Pen(3)-AEF-2Nal-THP-E-N-3Pya-Sar-K(PEG2PEG2C18OH)-CONH2) [SEQ ID NO: 70]
15 |  | < 0.05 | < 0.5 | {HOC18-γGlu-PEG2″-PEG2″}-[dR][Pen]NT[Trp(7-Me)]K(Ac)[Pen][AEF][2Nal][Thp]EN[3Pal][Sar]-NH2 (disulfide 2-7) [SEQ ID NO: 60]
